Substitutions are numbered along the chain they refer to. Numbers in names are those of the source.
T1: FcgRIIa R (FcγRIIa type R) extracellular domain with C-terminal His tag (human, UniProt P12318 34-217)
T1 construct: extracellular domain; also called FcγRIIa R; not shown: His tag attached to the C terminus
T1 sequence (looked up): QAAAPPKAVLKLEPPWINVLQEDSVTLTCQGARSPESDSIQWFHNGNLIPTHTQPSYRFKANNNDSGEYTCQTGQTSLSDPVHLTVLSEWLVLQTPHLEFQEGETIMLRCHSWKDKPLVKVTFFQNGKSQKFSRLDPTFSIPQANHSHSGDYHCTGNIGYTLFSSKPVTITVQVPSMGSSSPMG

T2: FcgRIIa H (FcγRIIa type H) extracellular domain with C-terminal His tag (human, UniProt P12318 34-217)
T2 construct: extracellular domain; also called FcγRIIa H; not shown: His tag attached to the C terminus
T2 sequence (looked up): T1 sequence (looked up) with R134H

T3: FcgRIIb (FcγRIIb) extracellular domain with C-terminal His tag (human, UniProt P31994 43-217)
T3 construct: extracellular domain; not shown: His tag attached to the C terminus
T3 sequence (looked up): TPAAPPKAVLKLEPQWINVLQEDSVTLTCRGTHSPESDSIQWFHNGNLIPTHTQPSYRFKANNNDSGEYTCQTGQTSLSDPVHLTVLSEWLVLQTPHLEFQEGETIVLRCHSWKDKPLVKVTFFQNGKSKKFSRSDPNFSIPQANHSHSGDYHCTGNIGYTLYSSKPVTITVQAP

B1: H240-Kn061/H240-Hl071/L73-k0 variant with A231E in H240-Kn061 (antibody, human IgG1, kappa)
heavy 1: QDQLVQSGAEVKKPGASVKVSCKASGFNIKDTYIQWVRQAPGQGLEWMGRIDPLRKQTKYREKFEGRVTITADTSTNTAYMELSSLRSEDTAVYYCVRSGREFDYWGQGTLVTVSSASTKGPSVFPLAPSSKSTSGGTAALGCLVKDYFPEPVTVSWNSGALTSGVHTFPAVLQSSGLYSLSSVVTVPSSSLGTQTYICNVNHKPSNTKVDKKVEPKSCDKTHTCPPCPEPEYYWGPSVFLFPPKPKDTLMISRTPEVTCVVVDVSDEDPEVKFNWYVDGVEVHNAKTKPREEQYNATYRVVSVLTVLHQDWLNGKEYKCKVSNKALPAPIEKTISKAKGQPREPQVCTLPPSRDELTKNQVSLWCLVKGFYPSDIAVEWESNGQPENNYKTTPPVLDSDGSFFLYSKLTVDKSRWQQGNVFSCSVMHEALHNHYTQKSLSLSP
heavy 2: QDQLVQSGAEVKKPGASVKVSCKASGFNIKDTYIQWVRQAPGQGLEWMGRIDPLRKQTKYREKFEGRVTITADTSTNTAYMELSSLRSEDTAVYYCVRSGREFDYWGQGTLVTVSSASTKGPSVFPLAPSSKSTSGGTAALGCLVKDYFPEPVTVSWNSGALTSGVHTFPAVLQSSGLYSLSSVVTVPSSSLGTQTYICNVNHKPSNTKVDKKVEPKSCDKTHTCPPCPAPELLGGPSVFLFPPKPKDTLMISRTPEVTCVVVDVSHEDPEVKFNWYVDGVEVHNAKTKPREEQYNSTYRVVSVLTVLHQDWLNGKEYKCKVSNDALPMPIEETISKAKGQPREPQVYTLPPSRCELTKNQVSLSCAVKGFYPSDIAVEWESNGQPENNYKTTPPVLDSDGSFFLVSKLTVDKSRWQQGNVFSCSVMHEALHNHYTQKSLSLSP
light: DIQMTQSPSSLSASVGDRVTITCRASQDIHKYIAWYQQKPGQAPRLLIQYTSTLQPGVPSRFSGSGSGTDYTFTISSLQPEDIATYYCLQYEQLRTFGGGTKVEIKRTVAAPSVFIFPPSDEQLKSGTASVVCLLNNFYPREAKVQWKVDNALQSGNSQESVTEQDSKDSTYSLSSTLTLSKADYEKHKVYACEVTHQGLSSPVTKSFNRGEC
notes: anti-epiregulin heterodimerized IgG1; also called H240-Kn061 A231E
B2: H240-Kn061/H240-Hl071/L73-k0 variant with A231Q in H240-Kn061 (antibody, human IgG1, kappa)
heavy 1: B1 heavy 1 with E230Q
heavy 2: B1 heavy 2
light: B1 light
notes: anti-epiregulin heterodimerized IgG1; also called H240-Kn061 A231Q
B3: H240-Kn061/H240-Hl071/L73-k0 variant with A231V in H240-Kn061 (antibody, human IgG1, kappa)
heavy 1: B1 heavy 1 with E230V
heavy 2: B1 heavy 2
light: B1 light
notes: anti-epiregulin heterodimerized IgG1; also called H240-Kn061 A231V
B4: H240-Kn061/H240-Hl071/L73-k0 variant with F241N in H240-Hl071 (antibody, human IgG1, kappa)
heavy 1: B1 heavy 1 with E230A
heavy 2: B1 heavy 2 with F240N
light: B1 light
notes: anti-epiregulin heterodimerized IgG1; also called H240-Hl071 F241N
B5: H240-Kn061/H240-Hl071/L73-k0 variant with S239I in H240-Kn061 (antibody, human IgG1, kappa)
heavy 1: B1 heavy 1 with E230A, S238I
heavy 2: B1 heavy 2
light: B1 light
notes: anti-epiregulin heterodimerized IgG1; also called H240-Kn061 S239I
B6: H240-Kn061/H240-Hl071/L73-k0 variant with S239L in H240-Kn061 (antibody, human IgG1, kappa)
heavy 1: B1 heavy 1 with E230A, S238L
heavy 2: B1 heavy 2
light: B1 light
notes: anti-epiregulin heterodimerized IgG1; also called H240-Kn061 S239L
B7: H240-Kn061/H240-Hl071/L73-k0 variant with S239M in H240-Kn061 (antibody, human IgG1, kappa)
heavy 1: B1 heavy 1 with E230A, S238M
heavy 2: B1 heavy 2
light: B1 light
notes: anti-epiregulin heterodimerized IgG1; also called H240-Kn061 S239M
B8: H240-Kn061/H240-Hl071/L73-k0 variant with S239V in H240-Kn061 (antibody, human IgG1, kappa)
heavy 1: B1 heavy 1 with E230A, S238V
heavy 2: B1 heavy 2
light: B1 light
notes: anti-epiregulin heterodimerized IgG1; also called H240-Kn061 S239V
B9: H240-Kn061/H240-Hl071/L73-k0 variant with Y234S in H240-Kn061 (antibody, human IgG1, kappa)
heavy 1: B1 heavy 1 with E230A, Y233S
heavy 2: B1 heavy 2
light: B1 light
notes: anti-epiregulin heterodimerized IgG1; also called H240-Kn061 Y234S
B10: H240-Kn061/H240-Hl071/L73-k0 variant with Y235E in H240-Kn061 (antibody, human IgG1, kappa)
heavy 1: B1 heavy 1 with E230A, Y234E
heavy 2: B1 heavy 2
light: B1 light
notes: anti-epiregulin heterodimerized IgG1; also called H240-Kn061 Y235E
B11: H240-Kn061/H240-Hl071/L73-k0 variant with Y235F in H240-Kn061 (antibody, human IgG1, kappa)
heavy 1: B1 heavy 1 with E230A, Y234F
heavy 2: B1 heavy 2
light: B1 light
notes: anti-epiregulin heterodimerized IgG1; also called H240-Kn061 Y235F
B12: H240-Kn061/H240-Hl071/L73-k0 variant with Y235L in H240-Kn061 (antibody, human IgG1, kappa)
heavy 1: B1 heavy 1 with E230A, Y234L
heavy 2: B1 heavy 2
light: B1 light
notes: anti-epiregulin heterodimerized IgG1; also called H240-Kn061 Y235L
B13: H240-Kn061/H240-Hl071/L73-k0 variant with Y235M in H240-Kn061 (antibody, human IgG1, kappa)
heavy 1: B1 heavy 1 with E230A, Y234M
heavy 2: B1 heavy 2
light: B1 light
notes: anti-epiregulin heterodimerized IgG1; also called H240-Kn061 Y235M
B14: H240-Kn061/H240-Hl071/L73-k0 variant with Y235N in H240-Kn061 (antibody, human IgG1, kappa)
heavy 1: B1 heavy 1 with E230A, Y234N
heavy 2: B1 heavy 2
light: B1 light
notes: anti-epiregulin heterodimerized IgG1; also called H240-Kn061 Y235N
B15: H240-Kn061/H240-Hl071/L73-k0 variant with Y235T in H240-Kn061 (antibody, human IgG1, kappa)
heavy 1: B1 heavy 1 with E230A, Y234T
heavy 2: B1 heavy 2
light: B1 light
notes: anti-epiregulin heterodimerized IgG1; also called H240-Kn061 Y235T
B16: H240-Kn061/H240-Hl071/L73-k0 variant with Y235W in H240-Kn061 (antibody, human IgG1, kappa)
heavy 1: B1 heavy 1 with E230A, Y234W
heavy 2: B1 heavy 2
light: B1 light
notes: anti-epiregulin heterodimerized IgG1; also called H240-Kn061 Y235W

The binders below were run against T1, FcgRIIa R (FcγRIIa type R) … (assay: SPR (Biacore); KD of H240-Kn061/H240-Hl071/L73-k0 divided by KD of the variant).
Procedure: (§1) The antibodies were assessed for the binding to each FcgR. […] The resultant value was defined as relative KD, and used as an assessment indicator.
(§2) Analysis of interaction between objective antibody and the FcγR was carried out using Biacore T100 (GE Healthcare), Biacore T200, Biacore A100, and Biacore 4000. HBS-EP+ (GE Healthcare) was used as the running buffer, and the measurement temperature was set to 25° C. Chips produced by immobilizing the antigen peptide by the amine coupling method to a Series S sensor Chip CM5 (GE Healthcare), chips produced by allowing preliminarily biotinylated antigen peptides to interact with and immobilize onto a Series S Sensor Chip SA (certified) (GE Healthcare), chips produced by immobilizing Protein L (ACTIGEN, BioVision) to Series S Sencor Chip CM5 (GE Healthcare), or chips produced by immobilizing Protein A/G (Thermo Scientific) to Series S Sencor Chip CM5 (GE Healthcare) were used. Antibodies of interest were captured onto these chips, and allowed to interact to each FcγR diluted with running buffer.

Point of comparison: B8, “relative KD” value 4.2 ratio. Against it:
- B1 — lower, 1.7 ratio
- B2 — lower, 1.5 ratio
- B3 — lower, 1.6 ratio
- B4 — lower, 3.8 ratio
- B5 — higher, 4.4 ratio
- B6 — higher, 4.8 ratio
- B7 — lower, 3.2 ratio

What follows are binders tested against T4, FcgRIIIa F (FcγRIIIa type F) extracellular domain with C-terminal His tag (human, UniProt P08637 17-208) in the same assay as above.
T4 construct: extracellular domain; also called FcγRIIIa F; 3aF; not shown: His tag attached to the C terminus
Procedure: as §1, §2

T4 sequence (P08637 17-208): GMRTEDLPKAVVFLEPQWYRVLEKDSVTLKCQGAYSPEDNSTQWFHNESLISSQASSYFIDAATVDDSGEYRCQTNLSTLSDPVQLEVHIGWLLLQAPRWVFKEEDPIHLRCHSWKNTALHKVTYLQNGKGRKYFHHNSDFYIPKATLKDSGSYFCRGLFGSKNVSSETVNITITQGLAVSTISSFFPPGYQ

Point of comparison: B4, “relative KD” value 0.8 ratio. Against it:
- B1 — higher, 1.8 ratio
- B2 — higher, 1.5 ratio
- B3 — higher, 1.3 ratio
- B5 — higher, 3 ratio
- B6 — higher, 3.4 ratio
- B7 — higher, 2.2 ratio
- B8 — higher, 2.4 ratio

The binders below were run against T2, FcgRIIa H (FcγRIIa type H) … in the same assay as above.
Procedure: as §1, §2

Point of comparison: B2, “relative KD” value 1.5 ratio. Against it:
- B1 — higher, 1.6 ratio
- B3 — higher, 1.6 ratio
- B4 — higher, 3.5 ratio
- B5 — higher, 2.1 ratio
- B6 — higher, 2.4 ratio
- B7 — higher, 2 ratio
- B8 — higher, 2.4 ratio

What follows are binders tested against T5, FcgRIIIa V (FcγRIIIa type V) extracellular domain with C-terminal His tag (human, UniProt P08637 17-208) in the same assay as above.
T5 construct: extracellular domain; also called FcγRIIIa V; not shown: His tag attached to the C terminus
Procedure: as §1, §2

T5 sequence (P08637 17-208 F176V limits assumed): as the sequence (P08637 17-208) above, with F160V counted along it

Point of comparison: B1, “relative KD” value 2 ratio. Against it:
- B2 — lower, 1.7 ratio
- B3 — lower, 1.5 ratio
- B4 — lower, 0.7 ratio
- B5 — higher, 3.4 ratio
- B6 — higher, 3.7 ratio
- B7 — higher, 2.8 ratio
- B8 — higher, 2.9 ratio

The binders below were run against T3, FcgRIIb (FcγRIIb) extracellular domain … in the same assay as above.
Procedure: as §1, §2

Point of comparison: B8, “relative KD” value 3.4 ratio. Against it:
- B1 — lower, 1.4 ratio
- B2 — lower, 1.4 ratio
- B3 — lower, 1.6 ratio
- B4 — lower, 1.1 ratio
- B5 — lower, 3.1 ratio
- B6 — the same, 3.4 ratio
- B7 — lower, 2.2 ratio

Biological target: T4, FcgRIIIa F (FcγRIIIa type F) …
Test: as above
Remark: another data set of the same source
Procedure: as §1, §2

Point of comparison: B14, “relative KD” value 1.3 ratio. Against it:
- B9 — lower, 0.9 ratio
- B10 — higher, 2.2 ratio
- B11 — the same, 1.3 ratio
- B12 — higher, 1.8 ratio
- B13 — higher, 1.7 ratio
- B15 — lower, 0.9 ratio
- B16 — lower, 1.1 ratio

Biological target: T5, FcgRIIIa V (FcγRIIIa type V) …
Test: as above
Remark: another data set of the same source
Procedure: as §1, §2

Point of comparison: B16, “relative KD” value 1.3 ratio. Against it:
- B9 — lower, 0.9 ratio
- B10 — higher, 3.2 ratio
- B11 — higher, 1.5 ratio
- B12 — higher, 1.5 ratio
- B13 — higher, 1.8 ratio
- B14 — higher, 2 ratio
- B15 — lower, 1.1 ratio

Biological target: T3, FcgRIIb (FcγRIIb) extracellular domain …
Test: as above
Remark: another data set of the same source
Procedure: as §1, §2

Point of comparison: B12, “relative KD” value 0.9 ratio. Against it:
- B9 — higher, 1 ratio
- B10 — lower, 0.8 ratio
- B11 — higher, 1.2 ratio
- B13 — lower, 0.7 ratio
- B14 — lower, 0.7 ratio
- B15 — lower, 0.6 ratio
- B16 — higher, 1.3 ratio

— patent publication US20150344570A1 (published 2015)
